For three molecules, Kd results are on record in publication PMC10899635 (2024).

To fix the notation:
B1: recombinant Q586B2 protein (natural protein)
chain: MPNLVVTATFSPPAFSIVGSPLREDTIKHMEERIPTVLSTALSRSREPSYFVHSKNPESWKMELSQHFCDELHRAAVSLVIIECLDAEGWVLRTSSSSQDTNEGKCCIKFYFTRS

In assay [1] the target is B1.

In general, Kd refers to the concentration at which binding is half-saturated.

On to B1, for which the results for the dissociation constant (Kd) with Nb36 and with Nb34 were 11.3 nM and 36.7 nM, respectively.

B2: Nb39 (VHH)
VHH: QVQLQESGGGLVQPGGSLRLSCTASGSIFSGYAMGWYRQAPGKQRELVAGITSGGSTIYAGSVKGRFTISRDNAKNTVYLQMNSLKPEDTAVYYCKNGTYYSARDYWGQGTQVTVSS
In the case of B2, the dissociation constant Kd in assay [1] was 49.9 nM.

B3: Nb27 (VHH)
VHH: QVQLQESGGGLVQPGGSLRLSCTTSRSILSIYAMGWYRQAPGKQRELVAVITSGGSTYYADSVKGRFTISRDNAKNTLYLQMNSLKPEDTALYYCARGGYGTSPQPSWGQGTQVTVSS
For B3, in assay [1], the equilibrium dissociation constant (Kd) was determined as 52 nM.
